Results reported in the supplement of paper PMC10126150.
± gives the standard deviation of the averaged measurements.

Tested on: ATP
Assay: switch fluorescence ratio, 500 uM ATP over buffer (Cy3 cluster intensity, sum of 5 cycles each) (fold (ratio)); higher = stronger signal-on switching upon ATP binding; sequences stand for … in TCGTCGGCAGCGTCAGATGTGTATAAGAGACAGTTTTTTTTTTTTTTTTTTTTTTTTT…TC
Conditions: aptamer strand: ATP DNA aptamer (quencher-CACCTGGGGGAGTATTGCGGAGGAAGG + anchor), 100 nM annealed; ATP concentration: 500 uM
How it was run: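 The fluorescence ratio divides summed target-cycle Cy3 intensity by summed buffer-cycle Cy3 intensity for each cluster and is averaged per switch-domain sequence. Cy3-labelled switching-strand clusters on a modified Illumina MiSeq flow-cell were annealed to 100 nM quencher-labelled ATP aptamer, then imaged in selection buffer and again after 15 min with 500 uM ATP at 22 °C. Five such cycles were run, with NaOH stripping and re-annealing between them, and clusters outside 100-1000 RFU were excluded.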
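Note: ATP exposure 15 min at 22 °C before imaging.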

Row | Sequence | switch fluorescence ratio
1 | GTTTGGTATT | 1.01 ± 0.04
2 | GTAGGTAAGC | 1.03 ± 0.057
3 | AAATTAATCA | 1.04 ± 0.094
4 | TTGTTTGGCA | 0.991 ± 0.025
5 | CTGGGCGGTT | 0.9959 ± 0.0017
6 | GGTTCGACTG | 0.951 ± 0.046
7 | AGGGAAATAG | 1.02 ± 0.023
8 | GGATATACTT | 1.03 ± 0.024
9 | TGCTCCTAAC | 1.3 ± 0.051
10 | GATTACAGTG | 1.02 ± 0.047
11 | CCTTTCATGC | 1.65 ± 0.16
12 | GATTTTTGCC | 1.01 ± 0.031
13 | GAGCTATGTG | 1.03 ± 0.0011
14 | TTATGGTCGG | 0.984 ± 0.016
15 | ATTGGGGATT | 1.013 ± 0.009
16 | TTGTGTAGCT | 1.02 ± 0.0057
17 | CTATGTGGGT | 1.02 ± 0.048
18 | CTTAGCCGGG | 0.981 ± 0.032
19 | ACGAGGGGAA | 1.015 ± 0.0057
20 | GATATGTGTT | 1.001 ± 0.0024
21 | TTTTGATGAC | 1.01 ± 0.047
22 | GTCATTTGTA | 0.9813 ± 0.0074
23 | GAGGAAAAAT | 1.062 ± 0.0021

Row | Sequence | switch fluorescence ratio
24 | TCCCACTTCG | 1.03 ± 0.053
25 | TATCGGGATT | 1.02 ± 0.026
26 | ACTACAGCTC | 1.15 ± 0.021
27 | TTTTGTTTCT | 0.992 ± 0.027
28 | CGGAAGTGTG | 0.981 ± 0.039
29 | AGAGGTTTGG | 0.9944 ± 0.0051
30 | GCCGGGGCGC | 1 ± 0.012
31 | GGTATATGTC | 0.994 ± 0.05
32 | ATATTCGGCG | 0.975 ± 0.022
33 | GAGAGAGGTG | 1.0377 ± 0.00093
34 | CAGTTGGGAG | 1.01 ± 0.029
35 | CTTATTCGAT | 0.999 ± 0.012
36 | TATTGGGCTT | 0.989 ± 0.018
37 | TAGTAGACTC | 1.46 ± 0.75
38 | CAGGGAATAA | 0.997 ± 0.011
39 | ACAATATAGA | 1.0126 ± 8.1e-07
40 | ACCTATTAGA | 1.01 ± 0.022
41 | CATGGGGAAG | 1.02 ± 0.011
42 | GATTCGTGAC | 1.03 ± 0.052
43 | TTGGAGGGAG | 0.999 ± 0.043
44 | CGTGTAGGGA | 1.06 ± 0.029
45 | GGGTGGTTTT | 1.01 ± 0.035
46 | ATATTTTTTT | 1 ± 0.03

Row | Sequence | switch fluorescence ratio
47 | CGTCTTATTA | 0.9826 ± 0.0028
48 | TGTCGACTTG | 0.9716 ± 0.0066
49 | ATAAGGGTAA | 1 ± 0.013
50 | CGGATGGGGG | 1.01 ± 0.046
51 | TTCTATTTGA | 1.0138 ± 0.00028
52 | AGGCCGTTCG | 0.9976 ± 0.0073
53 | CATGAATTTT | 0.982 ± 0.047
54 | TTGGGATAGG | 1.01 ± 0.029
55 | GAAATTTGG | 1.01 ± 0.061
56 | GTTTTTTGAT | 1.008 ± 0.0042
57 | ATTGCGCAAG | 1.01 ± 0.02
58 | GGGAGCACTA | 1.09 ± 0.017
59 | TGGGGTATAG | 1.01 ± 0.018
60 | TTATGCTGGG | 0.974 ± 0.012
61 | TACACGGGGT | 1.05 ± 0.018
62 | TTAATAAACT | 1.03 ± 0.051
63 | TAATAAAATT | 1.04 ± 0.083
64 | AGAGTCACGG | 0.982 ± 0.024
65 | TCTGGTTGT | 0.992 ± 0.028
66 | AACTGTGTTT | 0.983 ± 0.04
67 | TATATTTTGG | 1.02 ± 0.074
68 | AAGTTGTATG | 0.9787 ± 0.0025
69 | AATCGGTGCG | 0.986 ± 0.049

Row | Sequence | switch fluorescence ratio
70 | TTTAATTAT | 0.99 ± 0.034
71 | CGCGCCTATC | 1.11 ± 0.02
72 | TTTAATGAGC | 0.995 ± 0.014
73 | ACTCCTCGAC | 2.71 ± 0.41
74 | CTTGATACAG | 1.037 ± 0.0026
75 | TGTTATAAAC | 1.02 ± 0.017
76 | ATATTCATCT | 0.9861 ± 0.0056
77 | ACAATCGGCG | 1.02 ± 0.0072
78 | ACGGGGTAGA | 1.03 ± 0.052
79 | AATGTTACGC | 1.02 ± 0.058
80 | ATGTGTAGGC | 1.02 ± 0.026
81 | CGGGTGGGGC | 1.02 ± 0.052
82 | CTTGATGTTG | 1.01 ± 0.012
83 | GGACATTATA | 1.031 ± 0.0056
84 | CGGGCGTCTC | 0.996 ± 0.022
85 | GGGGATGATG | 0.9683 ± 0.0046
86 | TTTTTTATGT | 0.995 ± 0.029
87 | TCACTGGGTA | 0.995 ± 0.014
88 | AAAGAAAGCG | 0.997 ± 0.042
89 | TTTCGAGGAA | 1.03 ± 0.019
90 | TGTGAAGGCG | 1.71 ± 1
91 | GGCGGGGACG | 0.999 ± 0.022
92 | TCTTAACGGC | 1.04 ± 0.05

Row | Sequence | switch fluorescence ratio
93 | TACGTTGCAA | 1.22 ± 0.015
94 | TACGTGGGGG | 1.02 ± 0.029
95 | TTTACGAAAT | 1.08 ± 0.12
96 | CCAAGTGCGG | 1.01 ± 0.029
97 | AGGGTTTTGG | 0.999 ± 0.03
98 | CGGGGATGTC | 1.05 ± 0.014
99 | GAATTGAGAA | 0.972 ± 0.035
100 | GGGAAAGCTG | 0.956 ± 0.096
101 | GGGTTCTTAA | 0.981 ± 0.048
102 | CTAATGTGCG | 1.15 ± 0.28
103 | GGGACATTCA | 1.03 ± 0.023
104 | AGAGAGAGGT | 0.992 ± 0.045
105 | TTTTTAAAGC | 0.995 ± 0.038
106 | GATAATTTGT | 0.973 ± 0.065
107 | TTTGAGTCCG | 1.04 ± 0.065
108 | TTCGAAGGGT | 1.09 ± 0.1
109 | CATACTTTTT | 1.02 ± 0.018
110 | AATTTGGTCC | 1.04 ± 0.058
111 | ATTTCAGTGT | 1.009 ± 0.0044
112 | AGACCGTGTT | 1.03 ± 0.054
113 | GGGGGTGGTC | 1.01 ± 0.04
114 | GGGTAACGAG | 1.006 ± 0.0078
115 | CAGTAGGCGC | 1.01 ± 0.011

Row | Sequence | switch fluorescence ratio
116 | TGTTAAGGGA | 1 ± 0.02
117 | AGTCGTTCTG | 0.99 ± 0.01
118 | AATTTAAAGC | 1.03 ± 0.07
119 | GGTAAAGGCG | 0.9621 ± 0.0048
120 | AAAGGGCCTT | 1.003 ± 0.0024
121 | ATGGCAGCAT | 1.012 ± 0.0057
122 | CATTTTCTAA | 1.04 ± 0.047
123 | GGTGCTGGCA | 0.956 ± 0.051
124 | GATGGTAGCT | 1.04 ± 0.074
125 | AAGTCATTTT | 1.026 ± 0.0017
126 | AGGGGGTGTC | 1.075 ± 0.0097
127 | CGGCGTGTTT | 1.052 ± 0.0087
128 | TTGTGATTTT | 1.02 ± 0.048
129 | TATATTAGAG | 1.01 ± 0.0023
130 | GGTTTTCAGT | 1.03 ± 0.045
131 | TTGGGGGCGT | 1.03 ± 0.058
132 | ATTGCTATGG | 1.01 ± 0.016
133 | AGCCTGTTAG | 0.9892 ± 0.0087
134 | TAACAGGTTT | 0.989 ± 0.016
135 | TTCTGTGTGG | 0.981 ± 0.011
136 | TGTGAACGGA | 1.004 ± 0.01
137 | AGTACTAGGA | 0.993 ± 0.011
138 | AGAGAGCTTT | 1.01 ± 0.021

Row | Sequence | switch fluorescence ratio
139 | ATAGATTCTC | 0.977 ± 0.025
140 | TCCTGTATGT | 0.9981 ± 0.0018
141 | AAAGTTTTAA | 1.02 ± 0.018
142 | ACTTTAATGA | 1.07 ± 0.018
143 | AATAGCTAGT | 0.99272 ± 0.00015
144 | CTATACGGTA | 1.128 ± 0.0097
145 | AAGGTTAATG | 1 ± 0.016
146 | TGGATGTTTA | 1.03 ± 0.024
147 | GGGCATATAG | 1.61 ± 0.71
148 | TTTCAGTACA | 0.988 ± 0.01
149 | GCCTTCAAGC | 1.04 ± 0.054
150 | CTGCCAGATG | 1.1 ± 0.054
151 | GTTTGCGTTA | 0.962 ± 0.05
152 | CTTAATCTC | 0.968 ± 0.02
153 | CGGTTAACGG | 1 ± 0.025
154 | CTTGTGGTGG | 1.006 ± 0.0089
155 | TTTCGCGGTT | 1.02 ± 0.043
156 | TGCCGGTTTT | 1.01 ± 0.036
157 | TCGCGGAGGG | 0.981 ± 0.019
